Values of other authors in publication PMC3633488.

Biological target: FGF-2 (Homo sapiens) (UniProt P09038)

- Kd: 0.07 µM
Substance: perlecan (from UniProt P98160)
